According to article PMC6251712 (Archives of biochemistry and biophysics, 2018):
Non-standard residues stand in square brackets, D forms with d. No end group written: not given here. FAM = fluorescent label on the peptide N-terminus (FAM, not expanded in the evidence); pY = N[C@@H](Cc1ccc(OP(=O)(O)O)cc1)C(=O)O

What was measured:
[1] = target: FAM-labeled c-MET peptide (1353-1360) with Y1356 phosphorylated, FAM-N-A-T-pY-V-N-V-K; assay: fluorescence polarisation
[2] = target: SHIP2 SH2 domain (SHIP2-SH2), wild type (human) (UniProt O15357); assay: NMR titration
[3] = target: T1, SHIP2-SH2 S27A (human, UniProt O15357 20-117, S27A); assay: fluorescence polarisation
T1 sequence (looked up): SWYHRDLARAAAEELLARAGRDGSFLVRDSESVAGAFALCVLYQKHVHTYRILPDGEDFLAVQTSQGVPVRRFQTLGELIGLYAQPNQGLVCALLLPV

[4] = target: T2, SHIP2-SH2 S84A (human, UniProt O15357 20-117, S84A); assay: fluorescence polarisation
T2 sequence (looked up): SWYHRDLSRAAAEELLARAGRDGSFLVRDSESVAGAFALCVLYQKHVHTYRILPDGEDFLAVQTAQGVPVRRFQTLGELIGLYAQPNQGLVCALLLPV

[5] = target: T3, SHIP2-SH2 D48A (human, UniProt O15357 20-117, D48A); assay: fluorescence polarisation
T3 sequence (looked up): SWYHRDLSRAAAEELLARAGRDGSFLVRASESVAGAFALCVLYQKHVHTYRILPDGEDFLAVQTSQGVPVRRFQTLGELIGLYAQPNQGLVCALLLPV

[6] = target: T4, SHIP2-SH2 Q82A (human, UniProt O15357 20-117, Q82A); assay: fluorescence polarisation
T4 sequence (looked up): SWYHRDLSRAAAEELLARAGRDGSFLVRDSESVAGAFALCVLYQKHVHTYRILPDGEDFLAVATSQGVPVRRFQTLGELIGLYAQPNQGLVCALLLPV

[7] = target: T5, SHIP2-SH2 R28A (human, UniProt O15357 20-117, R28A); assay: fluorescence polarisation
T5 sequence (looked up): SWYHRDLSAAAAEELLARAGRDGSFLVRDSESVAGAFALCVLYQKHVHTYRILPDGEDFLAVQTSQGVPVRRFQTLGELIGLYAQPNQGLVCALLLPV

[8] = target: T6, SHIP2-SH2 E50A (human, UniProt O15357 20-117, E50A); assay: fluorescence polarisation
T6 sequence (looked up): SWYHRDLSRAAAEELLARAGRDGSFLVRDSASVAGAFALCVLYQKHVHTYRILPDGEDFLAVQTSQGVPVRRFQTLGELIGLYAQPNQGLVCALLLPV

[9] = target: T7, SHIP2-SH2 R70A (human, UniProt O15357 20-117, R70A); assay: fluorescence polarisation
T7 sequence (looked up): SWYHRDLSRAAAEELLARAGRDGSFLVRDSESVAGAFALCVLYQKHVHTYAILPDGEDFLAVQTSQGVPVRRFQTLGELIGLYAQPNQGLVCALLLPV

[10] = target: T8, SHIP2-SH2 S49A (human, UniProt O15357 20-117, S49A); assay: fluorescence polarisation
T8 sequence (looked up): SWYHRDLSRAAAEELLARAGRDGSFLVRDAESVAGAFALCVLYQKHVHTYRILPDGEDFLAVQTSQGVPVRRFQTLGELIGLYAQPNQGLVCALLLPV

“SHIP2 SH2 domain (SHIP2-SH2), wild type (from UniProt O15357 20-117) (domain or fragment)” showed a Kd [1] of 7.4 µM.

“Y1356-phosphorylated c-MET peptide (1353-1360), N-A-T-pY-V-N-V-K, unlabeled” was tested, and the Kd [2] was 16.5 µM.

Molecule {FAM}-NAT[pY]VNVK [FAM-labeled c-MET peptide (1353-1360) with Y1356 phosphorylated, FAM-N-A-T-pY-V-N-V-K] has a Kd [3] of 7.3 ± 0.3 µM, a Kd [4] of 6.4 ± 0.2 µM and a Kd [5] of 5.5 ± 0.2 µM. The Kd [6] was 7.5 ± 0.3 µM, the Kd [7] was 24.7 ± 1 µM and the Kd [8] was 3.2 ± 0.1 µM. The Kd [9] was 239 ± 12.1 µM and the Kd [10] was 134 ± 5.6 µM.
